Substitutions are numbered along the chain they refer to. Read-outs that look alike come from different tables or passages of the source.
T1: human GDF15-hFc (human)
T1 construct: Recombinant hFc-tagged fusion protein expressed in 293F cells
T1 chain: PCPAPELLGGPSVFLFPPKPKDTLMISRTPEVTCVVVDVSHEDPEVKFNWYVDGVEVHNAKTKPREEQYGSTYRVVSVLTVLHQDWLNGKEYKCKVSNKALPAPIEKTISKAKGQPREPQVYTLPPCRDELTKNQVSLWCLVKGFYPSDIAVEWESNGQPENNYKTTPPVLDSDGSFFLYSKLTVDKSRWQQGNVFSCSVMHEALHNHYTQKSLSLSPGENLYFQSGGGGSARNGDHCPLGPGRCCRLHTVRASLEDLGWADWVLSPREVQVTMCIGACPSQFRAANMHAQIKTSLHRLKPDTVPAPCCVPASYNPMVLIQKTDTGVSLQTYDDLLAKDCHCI

T2: human GDF15-his (human)
T2 construct: Recombinant His-tagged fusion protein expressed in 293F cells
T2 chain: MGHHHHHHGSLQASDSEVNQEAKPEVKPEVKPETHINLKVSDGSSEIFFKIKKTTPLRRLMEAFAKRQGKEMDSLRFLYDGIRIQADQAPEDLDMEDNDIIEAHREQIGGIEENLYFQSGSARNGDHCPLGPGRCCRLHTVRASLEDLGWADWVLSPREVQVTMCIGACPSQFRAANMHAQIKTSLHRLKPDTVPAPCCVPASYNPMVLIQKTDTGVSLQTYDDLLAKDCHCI

B1: GDF-R54-rabIg1 (antibody, V domains shown)
VH: QQLKESGGRLVTPGTPLTLTCTVSGFSLSSYDMTWVRQVPGKGLEWIGIINNSGNTYYASWAKGRFTISKTSTTVDLKITSPTTEDTATYFCARGILVYADYGDHNLWGPGTLVTVSS
VL: DVVMTQTASPVSAAVGGTVTINCQASEDIYTNLAWFQQKPGQPPKLLIYAASTLASGVPSRFSGSGSGTEFTLTISGLQCDDAATYFCLGVYTYISADGAFGGGTEVVVK
notes: Full-length rabbit antibody: rabbit IgG1 heavy constant and rabbit light constant; also called GDF15-R54-rabIg1
B2: GDF-R44-rabIg1 (antibody, V domains shown)
VH: QSVKESGGRLVTPGTPLTLTCKASGFSLSTYWMSWVRQAPGKGLEWIGTIYAGSGGTWYASWVKGRFTISKTSTTVDLKMTSLTTEDTATYFCVRGPNYSDAIWGPGTLVTVSS
VL: DIVLTQTAASVSEPVGGTVTIKCQASEYIYSSLAWYQQKPGQPPKLLIYDASDLASGVPSRFKGSGYGTEFTLTISGVQCGDAATYYCQCTDLSSSAGNTFGGGTEVVVK
notes: Full-length rabbit antibody: rabbit IgG1 heavy constant and rabbit light constant; also called GDF15-R44-rabIg1
B3: GDF-R36-rabIg1 (antibody, V domains shown)
VH: QSLEESGGRLVTPGTPLTLTCTASGFSLSNYYMSWVRQAPGEGLEWIGMISFSGTTYATWAKGRFTISKTSTTVDLKITSPTTEDTATYFCARVVYAGWTYPLGIWGPGTLVTVSS
VL: DPVLTQTPASVSEPVGGTVTIKCQASQSISSVLSWYQQKPGQPPKVLIYEASTLASGVPSRFKGSGSGTDFTLTISDLECADAATYYCQANYDVYNYGNPFGGGTEVVVK
notes: Full-length rabbit antibody: rabbit IgG1 heavy constant and rabbit light constant; also called GDF15-R36-rabIg1
B4: GDF-R37-rabIg1 (antibody, V domains shown)
VH: B3 VH with S2Q, E4K, V114I
VL: B3 VL with D1A, P2V, P8A, V46A, T53I
notes: Full-length rabbit antibody: rabbit IgG1 heavy constant and rabbit light constant; also called GDF15-R37-rabIg1
B5: GDF-R45-rabIg1 (antibody, V domains shown)
VH: B3 VH with L3V, E4K, N30D, S34T, T70A
VL: B3 VL with D1Y, P2V, V3M, L4M, A9P
notes: Full-length rabbit antibody: rabbit IgG1 heavy constant and rabbit light constant; also called GDF15-R45-rabIg1
B6: GDF-R35-rabIg1 (antibody, V domains shown)
VH: B3 VH
VL: B3 VL with D1A, P2I, V3N, L4M, L54Q
notes: Full-length rabbit antibody: rabbit IgG1 heavy constant and rabbit light constant; also called GDF15-R35-rabIg1
B7: hum_R37-10 (antibody, V domains shown)
VH: EVQLVESGGGLVKPGGSLRLSCAASGFSLSNYYMSWVRQAPGKGLEWIGMISFSGTTYATWAKGRFTISRDDSKNTVYLQINSLKTEDTAVYFCARVVYAGWTYPLGIWGQGTLVTVSS
VL: DIQMTQSPSSLSASVGDRVTITCQASQSISSVLSWYQQKPGKPPKALIYEASILASGVPSRFSGSGSGTDFTLTISSLQPEDFATYYCQANYDVYNYGNPFGGGTKVEIK
notes: Tested in human IgG1 format
B8: hum_R37-4 (antibody, V domains shown)
VH: B7 VH
VL: B7 VL with M4L
notes: Tested in human IgG1 format
B9: hum_R37-6 (antibody, V domains shown)
VH: B7 VH with I48V, V77L, I81M
VL: B7 VL with M4L
notes: Tested in human IgG1 format
B10: hum_R37-17 (antibody, V domains shown)
VH: B7 VH with I48V
VL: B7 VL with A46L
notes: Tested in human IgG1 format
B11: hum_R37-12 (antibody, V domains shown)
VH: B7 VH with I48V, V77L, I81M
VL: B7 VL
notes: Tested in human IgG1 format
B12: hum_R37-16 (antibody, V domains shown)
VH: B7 VH
VL: B7 VL with A46L
notes: Tested in human IgG1 format

What was measured:
[1] = biological target: T1, human GDF15-hFc; experiment: competition ELISA; GFRAL-his coated, antibody titrated against human GDF15-hFc, anti-human IgG-HRP detection
Procedure: (§1) The ELISA assay was performed to measure the inhibitory activity of anti-GDF15 antibodies in concentration gradients to block GDF15 binding to GFRAL receptor. IC₅₀ values were used as a measure for neutralizing activity of candidate molecules. Briefly, 96-well plates were coated with 100 ng/well of GFRAL-his protein (SEQ ID NO: 74), and incubated for 1 h at 37° C. The plates were washed with PBST and then blocked for 1 hour at 37° C. with 1% BSA. Gradient-diluted antibodies (dose range 0˜10 μg/ml) was added into each well, immediately followed by equal volume of human GDF15-hFc protein ([…]). After incubation and washing, 100 μl of anti-human IgG secondary antibody (goat anti-human IgG-HRP, Sigma, A8667) was added to each well. Finally, TMB solution (100 μl/well) was added. 2M H₂SO₄ was used to stop the reaction. The OD450 was measured and the binding curve was generated by PRISM to calculate the IC₅₀ value.

[2] = biological target: T2, human GDF15-his; experiment: ELISA; antibody coated, human GDF15-his titrated, anti-his-HRP detection
Procedure: (§2) ELISA binding assay: The purified monoclonal antibody was subjected to a binding assay with human GDF15-his protein. The binding assay was designed to characterize the binding activity of the anti-GDF15 antibody. Briefly, a 96-well plate was coated with anti-GDF15 antibody (200 ng/well) and incubated for 1 hour at 37° C. The plates were washed with PBST and then blocked for 1 hour at room temperature using 1% BSA. Then 100 µl/well of gradient-diluted human GDF15-his solution (dose range 0-50 μg/ml) was added into plates. After incubation, 100 μl of anti-his tag secondary antibody (anti-his-HRP (1:2000), Bersee, cat #BHR790) was added to each well. Finally, the TMB solution (100 μl/well) was added. 2M H₂SO₄ was used to stop the reaction. The OD450 was measured, and the binding curves were generated by PRISM software to analyze the affinity of candidate antibodies to human GDF15 antigen, and EC₅₀ value were calculated.

[3] = biological target: T2, human GDF15-his; experiment: cell-based or functional assay
[4] = biological target: T2, human GDF15-his; experiment: ELISA as in Example 2: plate coated with the antibody, graded human GDF15-his, anti-his-HRP, OD450; the sheet's x axis reads 'Log GDF15 antibody (nM)'
Procedure: as §2

[5] = biological target: T2, human GDF15-his; experiment: ELISA as in Example 2: plate coated with the antibody, graded human GDF15-his, anti-his-HRP, OD450; the sheet's x axis reads 'Log GDF15 Antibody (nM)'
Procedure: as §2

[6] = biological target: T2, human GDF15-his; experiment: cell-based or functional assay
[7] = biological target: T2, human GDF15-his; experiment: ELISA as in Example 2: plate coated with the antibody, graded human GDF15-his, anti-his-HRP, OD450; the sheet's x axis reads 'Log GDF15 Antibody (nM)'
Procedure: as §2

[8] = biological target: T1, human GDF15-hFc; experiment: competition ELISA as in Example 2; GFRAL-his coated, antibody titrated against human GDF15-hFc
Procedure: as §1

[9] = biological target: T2, human GDF15-his; experiment: cell-based or functional assay
[10] = biological target: T2, human GDF15-his; experiment: cell-based or functional assay
[11] = biological target: T2, human GDF15-his; experiment: cell-based or functional assay

Binder	IC50 [1] [nM]	EC50 [2] [nM]	IC50, 293T-GFRAL/RET-Luc SRE luciferase reporter cells stimulated with human GDF15-his (15 ng/ml) [3] [nM]	IC50 (read off the curve), SRE-luciferase signal in 293T-GFRAL/RET-Luc cells with human GDF15-his [6] [nM]	IC50 [8] [nM]	IC50 (read off the curve), SRE-luciferase signal in 293T-GFRAL/RET-Luc cells with human GDF15-his [10] [nM]	further results
B1	0.82	30.9	0.18	–	–	–	–
B2	1.98	54.8	0.27	–	–	–	–
B3	1.44	44.4	0.17	–	–	–	–
B4	1.28	43.1	0.15	~0.05	2.49	~0.06	EC50 (read off the curve) [4]: ~200 nM; EC50 (read off the curve) [5]: ~60 nM; EC50 (read off the curve) [7]: ~80 nM; IC50 (read off the curve), SRE-luciferase signal in 293T-GFRAL/RET-Luc cells with human GDF15-his [9]: ~0.2 nM; IC50 (read off the curve), SRE-luciferase signal in 293T-GFRAL/RET-Luc cells with human GDF15-his [11]: ~0.1 nM
B5	1.56	68.9	0.18	–	–	–	–
B6	1.32	31.3	0.21	–	–	–	–
B7	–	–	–	~0.06	1.86	–	EC50 (read off the curve) [7]: ~80 nM
B8	–	–	–	~0.06	1.76	–	EC50 (read off the curve) [5]: ~60 nM
B9	–	–	–	~0.06	1.72	–	EC50 (read off the curve) [5]: ~60 nM
B10	–	–	–	–	1.33	~0.08	EC50 (read off the curve) [4]: ~200 nM
B11	–	–	–	–	1.83	~0.05	EC50 (read off the curve) [7]: ~80 nM
B12	–	–	–	–	1.63	~0.08	EC50 (read off the curve) [4]: ~200 nM

— patent publication US20250326828A1 (STAIDSON BEIJING BIOPHARMACEUTICALS, published 2025)
